Measured values taken from article PMC3943932 (Molecular cell, 2014).
Positions count from the first letter of the chain named. Numbers in names are those of the source. Read-outs that look alike come from different tables or passages of the source.

Assays:
Test in all cases: pull-down
[1] = biological target: T1, purified GST-PDP1 Y381F (UniProt Q9P0J1 72-537, Y381F)
T1 sequence (looked up): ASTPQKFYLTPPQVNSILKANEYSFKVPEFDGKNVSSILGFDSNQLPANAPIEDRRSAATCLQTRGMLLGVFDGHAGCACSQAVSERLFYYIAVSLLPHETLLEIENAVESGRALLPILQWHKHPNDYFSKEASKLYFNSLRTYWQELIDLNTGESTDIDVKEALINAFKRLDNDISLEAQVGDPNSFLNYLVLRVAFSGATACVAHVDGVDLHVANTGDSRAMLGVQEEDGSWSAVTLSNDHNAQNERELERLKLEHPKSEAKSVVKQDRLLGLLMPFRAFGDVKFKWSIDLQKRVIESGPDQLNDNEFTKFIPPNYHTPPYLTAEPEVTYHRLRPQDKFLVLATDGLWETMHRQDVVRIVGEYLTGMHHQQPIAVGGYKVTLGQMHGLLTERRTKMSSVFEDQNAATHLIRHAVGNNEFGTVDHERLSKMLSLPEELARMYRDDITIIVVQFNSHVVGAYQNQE

[2] = biological target: T2, purified GST-PDK1 (UniProt Q15118 29-436)
[3] = biological target: T2, purified GST-PDK1; remark: listed apart in the source

T2 sequence (Q15118 29-436): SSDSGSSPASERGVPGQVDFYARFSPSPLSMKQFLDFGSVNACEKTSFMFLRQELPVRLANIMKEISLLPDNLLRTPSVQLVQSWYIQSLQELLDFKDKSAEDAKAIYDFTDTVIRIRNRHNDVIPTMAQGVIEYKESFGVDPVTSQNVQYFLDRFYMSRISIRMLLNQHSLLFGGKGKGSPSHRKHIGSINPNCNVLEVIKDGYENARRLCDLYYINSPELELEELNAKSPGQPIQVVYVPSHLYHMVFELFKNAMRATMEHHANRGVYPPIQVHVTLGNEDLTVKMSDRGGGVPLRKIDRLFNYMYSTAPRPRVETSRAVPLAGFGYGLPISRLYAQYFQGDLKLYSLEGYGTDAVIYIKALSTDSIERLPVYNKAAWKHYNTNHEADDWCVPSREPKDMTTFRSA

B1: recombinant FLAG-ACAT1 (enzyme, UniProt P24752 34-427, looked up)
chain: VSKPTLKEVVIVSATRTPIGSFLGSLSLLPATKLGSIAIQGAIEKAGIPKEEVKEAYMGNVLQGGEGQAPTRQAVLGAGLPISTPCTTINKVCASGMKAIMMASQSLMCGHQDVMVAGGMESMSNVPYVMNRGSTPYGGVKLEDLIVKDGLTDVYNKIHMGSCAENTAKKLNIARNEQDAYAINSYTRSKAAWEAGKFGNEVIPVTVTVKGQPDVVVKEDEEYKRVDFSKVPKLKTVFQKENGTVTAANASTLNDGAAALVLMTADAAKRLNVTPLARIVAFADAAVEPIDFPIAPVYAASMVLKDVGLKKEDIAMWEVNEAFSLVVLANIKMLEIDPQKVNINGGAVSLGHPIGMSGARIVGHLTHALKQGEYGLASICNGGGGASAMLIQKL
B1: binds [1].

B2: purified recombinant FLAG-PDHA1 K244R, incubated with NAM+TSA-treated H1299 cell lysates (enzyme, UniProt P08559 30-390, looked up)
chain: FANDATFEIKKCDLHRLEEGPPVTTVLTREDGLKYYRMMQTVRRMELKADQLYKQKIIRGFCHLCDGQEACCVGLEAGINPTDHLITAYRAHGFTFTRGLSVREILAELTGRKGGCAKGKGGSMHMYAKNFYGGNGIVGAQVPLGAGIALACKYNGKDEVCLTLYGDGAANQGQIFEAYNMAALWKLPCIFICENNRYGMGTSVERAAASTDYYRRGDFIPGLRVDGMDILCVREATRFAAAYCRSGKGPILMELQTYRYHGHSMSDPGVSYRTREEIQEVRSKSDPIMLLKDRMVNSNLASVEELKEIDVEVRKEIEDAAQFATADPEPPLEELGYHIYSSDPPFEVRGANQWIKFKSVS
modifications: lysine acetylation by the lysates (K321 is the site that the paper ties to PDK1 binding)
B2: binds [2].

B3: purified recombinant FLAG-PDHA1 K321R (enzyme, UniProt P08559 30-390, looked up)
chain: B2 chain with R215K, K292R
B3: binds [3].
